Experiment [1] has as its target full length human MSR1 with a C-terminal Myc tag on HEK293.Myc.hMSR1 cells (human) (UniProt P21757). Briefly: ECL cell binding, HEK293.Myc.hMSR1 cells.
Experiment [2] concerns the target endogenously expressed human MSR1 on PMA-treated THP-1 cells (human) (UniProt P21757). The experiment is described as follows: ECL cell binding, PMA-treated THP-1 cells.
Experiment [3] has as its target human MSR1 extracellular domain expressed with a N-terminal nonahistidine tag (His9-hMSR1; R&D Systems, Cat #2708-MS) (human) (UniProt P21757). Briefly: competition ELISA; 100 nM antibody, competitor Ac-LDL, plate-coated His9-hMSR1.
The target is the same in experiment [4]. Briefly: competition ELISA; 500 nM antibody, competitor 5 nM Ox-LDL, plate-coated His9-hMSR1. A general note: An ELISA detects its analyte on a solid surface through an enzyme-linked reagent.
Experiment [5] shares this target. Briefly: competition ELISA; 300 nM antibody, competitor biot-AGE-BSA, plate-coated His9-hMSR1.
The target of experiment [6] is full length monkey MSR1 on HEK293.mfMSR1 cells (Macaca fascicularis). The experiment is described as follows: ECL cell binding, HEK293.mfMSR1 cells.
full length monkey MSR1 on HEK293.mfMSR1 cells (Macaca fascicularis), sequence (chain, as listed by the source): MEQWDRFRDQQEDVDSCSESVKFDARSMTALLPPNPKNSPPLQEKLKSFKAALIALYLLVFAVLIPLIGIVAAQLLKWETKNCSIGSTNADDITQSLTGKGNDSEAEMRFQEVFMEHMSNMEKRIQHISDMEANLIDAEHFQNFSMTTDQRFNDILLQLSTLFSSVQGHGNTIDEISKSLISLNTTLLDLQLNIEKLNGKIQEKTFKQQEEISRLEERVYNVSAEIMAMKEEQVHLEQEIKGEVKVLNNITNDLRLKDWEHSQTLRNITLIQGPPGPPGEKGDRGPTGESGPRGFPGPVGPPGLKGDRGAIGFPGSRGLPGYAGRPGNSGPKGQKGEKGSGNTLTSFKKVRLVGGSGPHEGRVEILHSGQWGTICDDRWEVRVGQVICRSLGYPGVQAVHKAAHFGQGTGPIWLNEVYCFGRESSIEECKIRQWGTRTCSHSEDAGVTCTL
Experiment [7] concerns the target mouse MSR1 on RAW264.7 cells (mouse) (UniProt P30204). Briefly: flow cytometry, RAW264.7 cells, 10 ug/mL. (In flow cytometry, cells or beads pass a laser one at a time.)
Experiment [8] concerns the target human MSR1 extracellular domain expressed with a N-terminal nonahistidine tag (His9-hMSR1; R&D Systems, Cat #2708-MS) (human) (UniProt P21757). Briefly: competition ELISA; 1 µM antibody, competitor 10 nM Ox-LDL, plate-coated His9-hMSR1.

endogenously expressed human MSR1 on PMA-treated THP-1 cells (human), sequence (P21757 whole entry, the tested form may be a part): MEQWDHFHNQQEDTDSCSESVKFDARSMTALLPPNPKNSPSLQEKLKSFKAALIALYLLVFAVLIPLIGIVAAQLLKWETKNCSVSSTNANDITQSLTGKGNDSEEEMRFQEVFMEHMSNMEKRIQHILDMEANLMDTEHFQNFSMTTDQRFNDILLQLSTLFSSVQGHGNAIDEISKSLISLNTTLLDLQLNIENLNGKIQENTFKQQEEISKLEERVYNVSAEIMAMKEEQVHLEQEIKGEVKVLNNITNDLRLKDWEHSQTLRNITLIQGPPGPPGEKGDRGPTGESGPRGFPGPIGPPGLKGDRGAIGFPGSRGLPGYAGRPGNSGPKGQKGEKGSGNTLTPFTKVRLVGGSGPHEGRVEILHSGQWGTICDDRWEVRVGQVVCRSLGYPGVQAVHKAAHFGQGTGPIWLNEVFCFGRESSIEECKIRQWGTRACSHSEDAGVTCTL
full length human MSR1 with a C-terminal Myc tag on HEK293.Myc.hMSR1 cells (human), sequence (P21757 whole entry): as the sequence (P21757 whole entry, the tested form may be a part) above
mouse MSR1 on RAW264.7 cells (mouse), sequence (P30204 whole entry, the tested form may be a part): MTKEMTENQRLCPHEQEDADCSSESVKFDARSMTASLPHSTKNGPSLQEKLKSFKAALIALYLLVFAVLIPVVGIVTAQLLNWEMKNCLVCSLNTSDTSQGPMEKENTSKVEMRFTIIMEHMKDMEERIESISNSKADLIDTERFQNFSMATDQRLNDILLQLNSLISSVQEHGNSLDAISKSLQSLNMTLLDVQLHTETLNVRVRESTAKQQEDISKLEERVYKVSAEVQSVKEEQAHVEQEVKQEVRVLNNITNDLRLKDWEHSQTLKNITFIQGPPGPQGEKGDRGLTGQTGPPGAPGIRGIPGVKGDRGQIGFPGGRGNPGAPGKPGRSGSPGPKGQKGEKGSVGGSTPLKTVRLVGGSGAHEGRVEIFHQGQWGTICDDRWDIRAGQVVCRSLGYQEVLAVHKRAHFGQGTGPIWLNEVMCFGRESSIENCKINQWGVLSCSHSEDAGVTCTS
human MSR1 extracellular domain expressed with a N-terminal nonahistidine tag (His9-hMSR1; R&D Systems, Cat #2708-MS) (human), sequence (P21757 other isoform, or with tags, fused parts or gaps): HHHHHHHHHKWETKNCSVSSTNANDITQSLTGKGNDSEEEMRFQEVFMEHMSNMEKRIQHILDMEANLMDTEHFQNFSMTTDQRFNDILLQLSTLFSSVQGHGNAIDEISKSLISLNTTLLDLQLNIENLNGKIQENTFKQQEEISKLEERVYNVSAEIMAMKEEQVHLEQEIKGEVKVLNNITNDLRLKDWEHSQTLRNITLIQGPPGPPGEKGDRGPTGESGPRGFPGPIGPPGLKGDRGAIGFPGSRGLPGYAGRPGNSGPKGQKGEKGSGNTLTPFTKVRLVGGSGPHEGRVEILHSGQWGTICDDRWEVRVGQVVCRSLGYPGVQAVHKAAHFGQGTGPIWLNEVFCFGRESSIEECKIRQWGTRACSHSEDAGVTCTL

B1: H2aM21229N (antibody, mouse IgG2a, V domains shown)
VH: EVQLVESGGGLVKPGGSLRLSCAASGFTFSRYSMNWVRQAPGKGLEWVSSISSSSSYIYYGDTVKGRFTISRDNAKKSLYLQMNSLRAEDTAVYYCVRDRGQLVLYFDYWGQGTLVTVSS
VL: DIQMTQSPASLSTSIRDRVTITCRASLSISSFLNWFQQRPGKAPKLLIYVASNLQSGVPSRFSDSGSGTDFTLTISSLQPEDFATYYCQQNYSTPPITFGQGTRLEIK
Consider B1, for which the ratio of 11 nM antibody binding signal (RLU) to isotype control in experiment [1] was found to be 78; in experiment [2], 56. The % Blocking in experiment [3] was -11%; in experiment [4], 38%; in experiment [5], 3%.

B2: H1H27747P-N297Q (antibody, human IgG1, V domains shown)
VH: QVQLVESGGAVVQPGRSLRLSCAASGFTFSYYGMHWVRQAPGKGLEWVAVISYDGSKKYYADSVKGRFTISRDNSKNTLYLQMNSLRAEDTAVYYCAKDLTVDFYYGMDVWGQGTTVTVSS
VL: DIQMTQSPSSVSASVGDRVTITCRASQGISSWLAWYQQKPGKAPKLLIYATSSLQSGAPSRFSGSGSGTDFTLTISSLQPEDFATYFCQQANSFPYTFGQGTKLEIKR
As to B2, the ratio of 11 nM antibody binding signal (RLU) to isotype control in experiment [6] worked out at 21; in experiment [1] it was 26; in experiment [2], 13. Besides, the MFI in experiment [7] was determined as 3630. Also, in experiment [7], the S/N turned out to be 1. The values for the % Blocking in experiment [3], in experiment [8] and in experiment [5] were -44%, -31% and -2%, respectively.

B3: H1H27754P-N297Q (antibody, human IgG1, V domains shown)
VH: EVQLVESGGGLVQPGGSLRLSCAASGFTFRTYAMTWVRQAPGKGLDWVSAITGDGGNTYYADSVKGRFTISRDNSKNTLYLQMNSLRAEDTAIYYCAKDQRFSFALYYFDYWGQGTLVTVSS
VL: DIQMTQSPSSVSASVGDRVTITCRASQGISSWLAWYQQKPGNAPKLLIYAAFSLQSGVPSRFSGSGSGTDFTLTISSLQPEDFATYYCQQANNFPWTFGQGTKVEIKR
As for B3, the ratio of 11 nM antibody binding signal (RLU) to isotype control in experiment [6] stood at 53; in experiment [1], 55; in experiment [2], 66. The molecule also returned an MFI in experiment [7] of 5410. For the same molecule, the S/N in experiment [7] was found to be 1. Besides, the % Blocking in experiment [3] is -42%; in experiment [8], -44%; in experiment [5], -9%.
